Data reported in publication PMC5428876, “The role of Lon-mediated proteolysis in the dynamics of mitochondrial nucleic acid-protein complexes”.

Legend:
[1] = biological target: T1, Saccharomyces cerevisiae mtDNA packaging protein Abf2 lacking the mitochondrial targeting sequence (S. cerevisiae), Q02486; assay: SEC; final purification step of Abf2 on Superdex 75 10/300 GL in buffer B (50 mM ammonium acetate, pH 7.3, 500 mM KCl) with 5% (v/v) glycerol; settings: remark: other sources report otherwise
T1 chain: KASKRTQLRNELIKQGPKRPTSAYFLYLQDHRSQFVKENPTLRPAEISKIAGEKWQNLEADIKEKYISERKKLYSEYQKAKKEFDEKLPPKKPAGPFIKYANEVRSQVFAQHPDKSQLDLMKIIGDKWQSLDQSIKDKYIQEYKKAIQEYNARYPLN

[2] = biological target: T2, Abf2 (Saccharomyces cerevisiae, UniProt Q02486 27-183, del1-26); assay: EMSA; 25 mM Tris-HCl pH 7.4, 100 mM NaCl, 0.1 mg/ml BSA, 10 min, 30 C (Abf2) or 37 C (TFAM); Cy3 probes 75 nM, ssDNA 10 uM, dsDNA 4 uM; Mgm101 as in Pevala et al.; settings: protein: recombinant, tags: 6xHis-GST removed by PreScission, chain copies: 2, label: 5' Cy3
T2 sequence: T1 chain

B1: Saccharomyces cerevisiae mtDNA packaging protein Abf2 lacking the mitochondrial targeting sequence, Q02486 27-183 (natural protein)
chain: T1 chain
- stoichiometry N [1]: 2

B2: dsDNA 49 bp (dsDNA)
DNA 1: AGCTACCATGCCTGCACGAATTAAGCAATTCGTAATCATGGTCATAGCT
DNA 2: AGCTATGACCATGATTACGAATTGCTTAATTCGTGCAGGCATGGTAGCT
- binding result ([2]; blunt): binds

B3: 3' overhang (mixed)
DNA 1: B2 DNA 1
DNA 2: AATTCGTGCAGGCATGGTAGCT
- binding result ([2]; 3' overhang 27 nt): binds

B4: 5' overhang (mixed)
DNA 1: B2 DNA 1
DNA 2: AGCTATGACCATGATTACGAATTGCTT
- binding result ([2]; 5' overhang 22 nt): binds

B5: 3' flap (structured_DNA)
DNA 1: B2 DNA 1
DNA 2: AATTCGTGCAGGCATGGTAGCT
DNA 3: AGCTATGACCATGATTACGAATTGCTTGGAATCCTGACGAACTGTAG
- binding result ([2]; flap 1:2 1:3, 3' flap 20 nt on strand 3): binds

B6: 5' flap (structured_DNA)
DNA 1: B2 DNA 1
DNA 2: AGCTATGACCATGATTACGAATTGCTT
DNA 3: GATGTCAAGCAGTCCTAAGGAATTCGTGCAGGCATGGTAGCT
- binding result ([2]; flap 1:2 1:3, 5' flap 20 nt on strand 3): binds

B7: Y-form (structured_DNA)
DNA 1: B2 DNA 1
DNA 2: B5 DNA 3
- binding result ([2]; Y-form): binds

B8: fork (structured_DNA)
DNA 1: B2 DNA 1
DNA 2: B5 DNA 3
DNA 3: CTACAGTTCGTCAGGATTCC
DNA 4: AATTCGTGCAGGCATGGTAGCT
- binding result ([2]; fork): binds
